{"source": "the nanobody polyreactivity screen of Harvey et al. (2022)"}
{"assay": "yeast display, Sf9 membrane polyspecificity reagent, FACS + sequencing; frameworks hold sequencing errors", "summary_of_the_method": "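After 36–48 hours of galactose induction, yeast (Saccharomyces cerevisiae BJ5465) displaying a synthetic nanobody library were stained at 4 °C for 1 hour with 10% biotinylated, detergent-solubilized Sf9 membrane reagent. Streptavidin microbeads enriched the stained cells before FACS sorting into low and high (top ~1%) gates on anti-HA and streptavidin fluorescence. Each clone's polyreactivity label reflects its gate of origin.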"}
{"sequence": "QVHLVESGGGLVQAGGSLRLTCAASGSIFTYNAMGWYRQAPGKEREFVAAISRCGGNTKYADSVKGRFTISRDNAKNTVYFQMNSLKPEDTAVYYCAVRTIAYSGFRYNYWGQGTQVTVSS", "polyreactivity (PSR sort gate)": "high polyreactivity"}
{"sequence": "QVQLVESGGGLVQAGGSLRLSCAASGRIFTIYSMGWYRQAPGKERELVATISKSGGITYYADSVKGRFTISRDNAKNTVYLQMNSLKPEDTAVYYCAAAWYYSSRGFHATWGHDYWGQGTQVTVSS", "polyreactivity (PSR sort gate)": "low polyreactivity"}
{"sequence": "QVQLVESGRGLVQAGGSLRLICAASGNIFWYNAMGWYRQAPGKERELVAAINWSGGSTYYADSVKGRFRISRDNAKNTVYLEMNSLKPEDTAVYYCYAEWYDGDALQWVEYWGQGTQVTVSS", "polyreactivity (PSR sort gate)": "high polyreactivity"}
{"sequence": "QVQLVESGGGLVQAGGSLRLSCAASGSTRRYYAMGWYRQAPGKERELVAAITRLGSTNYADSVKGRFTISRDNAKNTVYLQMNSLKPEDTAVYYCNTRWRYRPYRYRGDGGDYWAQGTQVTVSS", "polyreactivity (PSR sort gate)": "high polyreactivity"}
{"sequence": "QVQLVESGGGLVQAGGSLRLSCAASGSIFYYNTMGWYRQAPGKAREFVADISVNGGSTYYADSVKGRFTISRDNAKNTVYLQMNSLKPEDSAVYYCAARRYQRPHGLYGYWGQGTQVTVSS", "polyreactivity (PSR sort gate)": "low polyreactivity"}
{"sequence": "QVQLVESGGGLVQAGGSLRLICAATGFTFHNNVMGWYRQAPGKERELVATISKSGGSTYYADSVKGRFTISRDNAKNTVYLQMNRLKPEDTAVYYCARRYRDYGRYGYWGQGTQVTVSS", "polyreactivity (PSR sort gate)": "high polyreactivity"}
{"sequence": "QVQLVESGGGLVQAGGSLRLSCAASGIIFPPYTMGWYRQAPGKERELVAAINTRGSRTYYADSVKGRFTISRDNAKNTVYLQMNSLKPEDTAVYYCAADVWWSTTYDYWGQGTQVTVSS", "polyreactivity (PSR sort gate)": "high polyreactivity"}
{"sequence": "QVQLVESGGGLVQAGGSLRLSCAASGSTFNYYAMGWYRQAPGKERELVAAITSSGTSTFYADSVKGRITISRDNAKNTVYLQMNSLKPEDTAVYYCAVDLYWSYFNGALGYRYYYWGQGTQVTVSS", "polyreactivity (PSR sort gate)": "high polyreactivity"}
{"sequence": "QVQLVESGGGLVQAGGSLRLSCAASGSIFYGNTMGWYRQAPGKERELVAAIDYRGDSTYYADSVKGRFTISRDNAKNTVYLQMNSLKPEDTAVYYCAADQTPFGQVYYGTLSIRDYWGQGTQVTVSS", "polyreactivity (PSR sort gate)": "low polyreactivity"}
{"sequence": "QVQLVESGGALVQAGGSLRLSCAASGRIFGVNTMGWYRQAPGKERELVDAISAGGGSTYYADSVKGRFTISRDLAKNTVYLQMNSLKPEDTAVYYCNVLTLNYRSTSRRKEYDYWGQGTQVTVSS", "polyreactivity (PSR sort gate)": "high polyreactivity"}
{"sequence": "QFQLVESGGGLVQAGGSLRLSCAASGRIFVQYAMGWYRQATGKQTEFVAAISYRGGSTYYADSVKGRFTISRDNSKITVYLPMNSLKPEDTAVYYCAIVFPYRGKVTLDYWVQGTQVTVSS", "polyreactivity (PSR sort gate)": "low polyreactivity"}
{"sequence": "QVQLVESGGGLVQAGGSLRLSCAASGLTLYKNGMGWYRQAPGKERELVAVISRSGGRTYYADSVKGRFTISRDNAKNTVYLQMNSLKPEDTAVYYCAAAWYSSSRYQGIYRFDYWGQGTQVTVSS", "polyreactivity (PSR sort gate)": "high polyreactivity"}
{"sequence": "QGQLVESGGGLVQAGGSLRLSCAASGSIFGQYVMGWYRQAPGKERELVAAISGTGGSTYYADSVKGRFTISRDNAKNTVYLQMNSLKPEDTAVYYCAVVHRSSYRESGLLWRYYWGQGTQVTVSS", "polyreactivity (PSR sort gate)": "high polyreactivity"}
{"sequence": "QVQLVESGGGLVQAGGSLRLSCAASGIIFYHNALGWYRQAPGKERELVASITEIGGSTYYADSVKGRFTISRDNEKNTVYLQMNSLKPEDTAVYYCARDWRNKWFGYWGLGTQVTVSS", "polyreactivity (PSR sort gate)": "low polyreactivity"}
{"sequence": "QVQLVESGGGLVQAGGSLRLSCAASGSTFAGNAMGWYIQAPGKERELVAAISSSGAGTYYADSVKGRFTISRDNAKNTVYLLINSLKPADTAVYYCNVGSRALRRRVRSVSFDYWGQGTQVSVSS", "polyreactivity (PSR sort gate)": "low polyreactivity"}
{"sequence": "QVQLVESGGGLVQAGGSLRLSCAASGITYTSYAMGWYRQAPGKERELVAAISSSGGSTYYADSVKGRFTISRDNAKNTVYLQMNSLKPEDTAVYYCIARPRSRSPRVEYDYWGQGTQVTVSS", "polyreactivity (PSR sort gate)": "high polyreactivity"}
{"sequence": "QVQLVESGGGFVQAGCSLRLSCGASGLTFKTYAMGWYSQARGKERELVAAMSGTGGGTYYADSVKGRFTISRDNAKKTVYLQMNSQKPEDTEVYYCAALHQAYRGFDYWGQGTQVTVSS", "polyreactivity (PSR sort gate)": "high polyreactivity"}
{"sequence": "QVQLVESGGGLVQAGGSLRLSCAASGSIFGRYTMGWYRQAPGKERELVAAISSSGGRTYYADSVKGRFTISRDNAKNTVFLQMNSLKPEDTAVYYCNNGYGYEYYWGQGTQVTVSS", "polyreactivity (PSR sort gate)": "low polyreactivity"}
{"sequence": "QVQLVESGGGLVQAGGSLRLSCAASGFTLRRNAIGWYRQAPGKERELVAAISSSGSTYYADSVKGRFTISRDNAKNTVYLQMYSLKPEDTAVYYCAAQPGRRAGRSGFDYWGQGTQVNVSS", "polyreactivity (PSR sort gate)": "high polyreactivity"}
{"sequence": "QVQLVESGGGLVQAGGSLRLSCAASGSIFGNYVMGWYRQAPGKERELVAAIRWTGGSTYYADSVKGRFTISRDNAKNTVYLQMNSLKAEDTAVYYSIADSSDDYDYWGQGTQVTVSS", "polyreactivity (PSR sort gate)": "low polyreactivity"}
{"sequence": "QVQLVESGGGLVQAGGSLRLSCAASGFTFAAYAMGWYRQAPVKERELVAAITNGGSTKYADSVKGRFTISRDNAKNTVYVQMNSLKPEDTSVYYCNADGFDLNVTNVSALEYDSWGQGTQVTVSS", "polyreactivity (PSR sort gate)": "low polyreactivity"}
{"sequence": "QVQLVESGGGLVQAGGSLRLSCAASGFTFPGNAMGWYRQAPGKEREFVAAITRSSGSTSYADSVKGRFTISRDNAKNTVYLQMNSLKPDDTAVYRDYWGLGTQVTVSS", "polyreactivity (PSR sort gate)": "low polyreactivity"}
{"sequence": "QVQLVESGGGLVQAGGSLRLSCAASGRTFYQYDMGWYRQAPGKERDLVAAIDWSGGSTYYADSVKGRFTISRDNAKNTVYLQMNSLKPEDTAVYYCNADAYPHPVVGYDYWGQGTQVTVSS", "polyreactivity (PSR sort gate)": "low polyreactivity"}
{"sequence": "QVQLVESGGGLVQAGGSLSLSCAASGLTFYNYAMGWYRQAPGTERELVAAISRSGRTYYADSVKGRFTISRDNAKNTVDLQMNSLKPEDTAVYYCAAGHGGDPGSGYWGQGTEVTVSS", "polyreactivity (PSR sort gate)": "high polyreactivity"}
{"sequence": "QVQLVESGGGLVQAGGSLRLSCAASGSTFRYNTMGWYRQAPGKERELVARITSVGSTNYADSVKGRFTISRDNAKNTVYLQMNSLKPEDTAVYYCATTRPIRRTSARYNYWGQGTQVTVSS", "polyreactivity (PSR sort gate)": "low polyreactivity"}
{"sequence": "QVQHVESGGGLVQAGGSLRLSCAASGRIFYFNAMGWSSQAPGKERELVAAISGSGGDTYYADSVKGRFTISRDNAKNTVYLQMNSLKPEDTAVYYCAAEVYPWGQGTQVTVAS", "polyreactivity (PSR sort gate)": "low polyreactivity"}
{"sequence": "QVQLVESGGGLVQAGGSLRLSCAASGFIFYYNAMGWDRQAPGKERELVAAIDSGGRTNYADSVKGRFTISRDNAKNTVYLQMNSLKPEDTAVYYCATDPYQPYEGDYWGQGTQVTVSS", "polyreactivity (PSR sort gate)": "low polyreactivity"}
{"sequence": "QVQLVESGGGLVQAGGSLRLTCAASGSIVQVYPMVWYRQEPGKEREFVAAISYSGGGTYYADSVKGRFTISRDIAKNTVYLQMNILKPEDTAVYYCAADVSAWEEDIWRQGTQVTVSS", "polyreactivity (PSR sort gate)": "low polyreactivity"}
{"sequence": "QVQLVESGGGLVQAGGSLRLSCAASGSTFDYYALGWYRQAPGKETELVAAISRSGVRTYYADSVKGRFTISRDNAKNTVYLQMNSLKPEDTAVYYCAAQVIPKFDWGQGTQVTVSS", "polyreactivity (PSR sort gate)": "high polyreactivity"}
{"sequence": "QVQLVESGVGLVQAGGSLRLSCAASGSIFGRNAMGWYRQAPGKERELVARISYIGGSTYYADSVKGRFTISRDNEKNTVYLQMNSLKPEDTSVYYCAKRYGFGYKRMDYWGQGTQVTVSS", "polyreactivity (PSR sort gate)": "low polyreactivity"}
{"sequence": "QVQLVESGGGLVQAGGSLRLSCAASGSILNNYAMGWYRQAPGKERELVAAISSSGGTNYADSVKGRFTISRDNAKNTVYLQMNSLKPEDTAVYYCNADVLDGGYDYWVQGTQVTVSS", "polyreactivity (PSR sort gate)": "low polyreactivity"}
{"sequence": "QVQLVEAGGGLVQAGGSLRLSCASSGRIFNLYAMALYRQAPGKERELVAAINWSGDRTSYADSVKGRFTISRDNAKNTVYLQMNSLKPEDTAVYYCAAEYGLGDDTAYGYWGQGTQVTVSS", "polyreactivity (PSR sort gate)": "low polyreactivity"}
{"sequence": "QVQLVESGGGLVQAGGSIRLSCAASGFIFWANAMGWYIQAPGKERELVAAISGSGGRTYYADSVKGRFTISRDNAKNTVYLQMNSLKPEDTAVYYCAAKVSAWKKKSEMNYWGQGTQVTVSS", "polyreactivity (PSR sort gate)": "high polyreactivity"}
{"sequence": "QVQLVESGGGLVQAGGSLRLSCAASGNAMGWYRQAPGKERELVAAITYGGTTTYYADSVKGRFTISRDNAKNTVYLQMNSLKPEDTAVYYCAADYVFVATPLRYDYWGQGTQVTVSS", "polyreactivity (PSR sort gate)": "low polyreactivity"}
{"sequence": "QVQLVESGGGLVQAGGSLRLSCAASVSTFALYVMGWYRQAPGKERELVAAITDSSSTYYADSVKGRFTISRDNAKNTVYLQMNSLKPEDTAVYYCAARGRLIYAITYRNSPVYYWGQGTQVTVSS", "polyreactivity (PSR sort gate)": "low polyreactivity"}
{"sequence": "QVQLVESGGGLVQAGGSLRLSCAASGSTFGINAMGWYRQAPGKERELVASITRRGGSTYYADSVKGRFTISRDNAKNTVYLRMNSLKPEDTAVYYCNKTYRYGTPLYDYWGQGTQVTVSS", "polyreactivity (PSR sort gate)": "high polyreactivity"}
{"sequence": "QVQLVESGGGLVQAGGSLRLSCAASGSIFRYYAMGWYRQAPGKERELVAAISWSVGGTYYADSVKGRFTISRDNAKNTVYLQMNSLKPEDTAVYYCAADVLYTQYGYWGQGTQVTVSS", "polyreactivity (PSR sort gate)": "low polyreactivity"}
{"sequence": "QVQLVESGGGLVQAGGSLRLSCAASGITFRKYAMGWYRQAPGTERELVAAISAGGGRTFYADSVKGRFTISRDNAKNTVYLQMNSLKPEDTAVYYCNADLGIGYDYWGQGTQVTVSS", "polyreactivity (PSR sort gate)": "high polyreactivity"}
{"sequence": "QVQLVESGGGLVQAGGSLRLSCAASGRIFTYYAMGWYRQAPGKERELVAAITGSGGSTYYADSVKGRFTISRDNAKNTVYLQMNSLKPEDTAVYYCAAYWFTATWYYYWGQGTQVTVSS", "polyreactivity (PSR sort gate)": "high polyreactivity"}
{"sequence": "QVQLVESGGGLVQAGGSLRLSCAASGIFSRYAMGWYRQAPGKERELVAAISSGGSTYYADSVKGRFTISRDNAKNTVYLQMNSLKPEDTAVYYCAVKQRDKFAGGRNDYWGQGTQVTVSS", "polyreactivity (PSR sort gate)": "high polyreactivity"}
{"sequence": "QVQLVESGGGLVQAGGSLRISCAASGFIFRLYAMGWYRQAPGKERELVAAIRWSGGSTTYADSVKGRFTISRDNAKNTVYLQMNSLNPEDTAVYYCAATAGRRSVTYGYWGQGTQVTVSS", "polyreactivity (PSR sort gate)": "high polyreactivity"}
{"sequence": "QVQLVESAGGLVQAGGSLRLSCAASGIILYYYAMGWYRHAPGKERELVAAISSGGNTYYADSVKGRFTISRDNAKNTVYLQMNSLKPEDTAVYYCAAVTVIGGEYDYWGQGTQVTVSS", "polyreactivity (PSR sort gate)": "low polyreactivity"}
{"sequence": "QVQLVESGGGLVQAGGSLRLSCAASGGIFGYYTMGWYRQAPGKERELVAVITRSGGSTYYADSVKGRFTISRDNAKNTVYLQMNSLKPEDTAVYYCASGWRGGRYRYFAYDYWGQGTQVTVSS", "polyreactivity (PSR sort gate)": "high polyreactivity"}
